Assay results reported in paper PMC11507940 (bioRxiv, 2024).

B1: SUMO-I3 (single domain antibody I3 fused to an N-terminal 6X His-SUMO-FLAG tag) (VHH)
VHH: EVQLVESGGGLVQPGGSLRLSCAASGFTFSSYAMSWVRQAPGKGLEWVSAINSGGGSTSYADSVKGRFTISRDNAKNTLYLQMNSLKPEDTAVYYCAKARTGWSLAVPSFGSWGQGTQVTVSS
B2: MBP-I3 (single domain antibody I3 with an N-terminal MBP fusion and a C-terminal 6X His-tag) (VHH)
VHH: B1 VHH

Tests used:
[1] = target: Human recombinant fibroblast activation protein alpha (human) (UniProt Q12884); test: cross-linking + other: mass photometry
Human recombinant fibroblast activation protein alpha (human), sequence (Q12884 39-757): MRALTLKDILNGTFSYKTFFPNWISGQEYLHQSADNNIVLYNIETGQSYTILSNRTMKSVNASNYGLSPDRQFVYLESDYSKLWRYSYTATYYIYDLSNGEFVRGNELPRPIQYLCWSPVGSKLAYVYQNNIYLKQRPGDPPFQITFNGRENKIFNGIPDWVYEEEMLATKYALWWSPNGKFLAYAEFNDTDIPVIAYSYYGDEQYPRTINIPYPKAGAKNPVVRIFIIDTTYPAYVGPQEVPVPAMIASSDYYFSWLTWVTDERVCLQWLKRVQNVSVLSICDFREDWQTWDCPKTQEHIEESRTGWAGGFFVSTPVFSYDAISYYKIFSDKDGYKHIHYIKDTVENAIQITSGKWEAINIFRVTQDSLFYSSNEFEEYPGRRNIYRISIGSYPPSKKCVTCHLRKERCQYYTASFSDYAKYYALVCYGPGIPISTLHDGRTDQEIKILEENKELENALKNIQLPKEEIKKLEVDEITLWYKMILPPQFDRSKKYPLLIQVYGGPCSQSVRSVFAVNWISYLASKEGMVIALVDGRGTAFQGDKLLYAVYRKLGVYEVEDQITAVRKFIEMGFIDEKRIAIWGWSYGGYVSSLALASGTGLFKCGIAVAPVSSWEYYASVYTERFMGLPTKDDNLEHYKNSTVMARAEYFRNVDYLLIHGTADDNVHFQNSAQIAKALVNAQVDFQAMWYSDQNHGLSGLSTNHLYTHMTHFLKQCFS

[2] = target: Biotinylated dipeptidyl peptidase IV (Homo sapiens, UniProt P27487, biotin); test: BLI
Biotinylated dipeptidyl peptidase IV, sequence (P27487 39-766): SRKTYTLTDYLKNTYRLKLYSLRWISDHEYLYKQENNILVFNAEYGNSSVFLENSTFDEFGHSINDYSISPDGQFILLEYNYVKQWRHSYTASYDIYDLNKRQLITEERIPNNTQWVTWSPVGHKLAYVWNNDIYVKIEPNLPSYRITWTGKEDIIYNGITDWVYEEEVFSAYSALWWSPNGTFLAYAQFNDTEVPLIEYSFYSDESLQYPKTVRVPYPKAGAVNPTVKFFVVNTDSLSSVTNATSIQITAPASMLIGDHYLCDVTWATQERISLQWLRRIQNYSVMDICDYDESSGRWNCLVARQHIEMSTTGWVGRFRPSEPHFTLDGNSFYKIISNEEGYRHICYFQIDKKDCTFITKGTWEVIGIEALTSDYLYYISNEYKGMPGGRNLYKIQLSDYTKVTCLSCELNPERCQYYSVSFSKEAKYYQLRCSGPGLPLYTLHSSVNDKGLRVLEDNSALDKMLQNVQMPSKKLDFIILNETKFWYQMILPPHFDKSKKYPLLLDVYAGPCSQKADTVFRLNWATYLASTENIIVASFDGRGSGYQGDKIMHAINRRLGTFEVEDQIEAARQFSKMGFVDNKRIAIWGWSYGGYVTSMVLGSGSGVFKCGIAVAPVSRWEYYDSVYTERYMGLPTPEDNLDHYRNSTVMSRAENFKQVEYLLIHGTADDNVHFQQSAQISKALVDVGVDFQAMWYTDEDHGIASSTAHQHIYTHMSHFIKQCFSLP

Row | Binder | stoichiometry N [1] | binding result [2]
1 | B1 | 1 | 
2 | B2 |  | no binding (tested: 10 μM)
